Source: the supplement of paper PMC12764529
± gives the half width of the 95% confidence interval.

How the values were obtained:
[1] = folding stability dG unfold (combined trypsin and chymotrypsin); higher = more stable
Procedure, shortened: (§1)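 Designed mini-proteins with no cysteine and under 80 residues were kept only if AlphaFold2 dimer inter-PAE was above 15. In a PA-tagged cDNA display construct, they were digested with trypsin and chymotrypsin and then sequenced. K50 was inferred by Bayesian fitting of counts, and unfolding free energy was derived per protease or combined against a sequence-predicted unfolded-state K50 and a shared folded-state K50.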

[2] = folding stability dG unfold from chymotrypsin proteolysis; higher = more stable
Procedure, shortened: as §1

[3] = folding stability dG unfold from trypsin proteolysis; higher = more stable
Procedure, shortened: as §1

Row | Sequence | folding stability dG unfold [1] | folding stability dG unfold [2] | folding stability dG unfold [3]
1 | GSLVTVFPFPENGKTVEVVVPESVGTPLSEAEIRALLLEAHPDVPAAALPAEEAAEILQATPGVEAARVVAS [r1_463_JUSTAS] | -1.26 ± 1.46 kJ/mol | -0.0546 ± 0.795 kJ/mol | -3.67 ± 2.93 kJ/mol
2 | SAGGSAGGSSVSVGVPSSYASVEVTVLKEEPGKGLVTVKVTTTVPGTGEVLTETVTIPRSELLSAGGSAGGS [r12_964_JUSTAS] | 3.46 ± 0.192 kJ/mol | 2.16 ± 0.18 kJ/mol | 4.23 ± 0.142 kJ/mol
3 | SAGGSAGGMKVYEIEVPPSSGLTPEEIRARVREEIEASNNAPVEVTVEVDPNGRLTVTIKITPLSAGGSAGG [r6_819_JUSTAS] | 6.25 ± 0.544 kJ/mol | 5.34 ± 0.226 kJ/mol | 7.66 ± 0.151 kJ/mol
4 | MYLVRIKIEYKTEDGEKVEKEITLLVEPSEEEAKEKAEELARKIAEELGLSEEEIKKIEVEVVKLGEELEES [r1_159_TrROS_Hall] | 17.9 ± 0.628 kJ/mol | 18.3 ± 0.502 kJ/mol | 17 ± 0.92 kJ/mol
5 | SAGEPDKPFTLTLKLLLPQSEDGTPLTPEEAEELAKEISTELGVEVEEIKITSNPEGNFVEIEVKLRGSAGG [r19_322_TrMRF] | 10 ± 0.247 kJ/mol | 10.74 ± 0.0628 kJ/mol | 8.46 ± 0.13 kJ/mol
6 | SAGGSAGGSAGKKKKKKLVRVRITYKNGKKKEFVFKTKEEAEKALKEEFNIEKIEIEEIPSAGGSAGGSAGG [r17_508_TrROS_Hall] | 14.3 ± 0.669 kJ/mol | 15.3 ± 0.285 kJ/mol | 11.9 ± 0.418 kJ/mol
7 | MITPEEAIELAKEKAKELLEKAGPGTPSVVVEIKAEDGRVVKVEVDPVKKVINITVYDKGGKKVAEKIIEES [r1_370_JUSTAS] | 9.94 ± 0.46 kJ/mol | 11.2 ± 0.414 kJ/mol | 8.6 ± 0.418 kJ/mol
8 | SAGGKKKKVIIVIEAPPGMSAEEIAAAIAEKLGLPKEEIKVERFKSVEEALAAAEKEGKEVIVIEVDSAGGS [r8_245_TrROS_Hall] | 10.1 ± 0.402 kJ/mol | 10.7 ± 0.247 kJ/mol | 8.6 ± 0.222 kJ/mol
9 | SAGGSKPILKIKITIYRIDKNGKLIKKIELTLPPLTEEQLKKLLEALKKLPKDVKIVEVKIELVEPSAGGSA [r2_75_TrROS_Hall] | 17.4 ± 1.3 kJ/mol | 19 ± 1.09 kJ/mol | 14.6 ± 1.34 kJ/mol
10 | SAGGSAGGGKMEYDPKDGTMRWRDPANGIEHESRIEIPPIVIPADDLPKLREQFPPDMPVVLAGSAGGSAGG [r6_104_TrROS] | 3.02 ± 0.18 kJ/mol | 3.93 ± 0.259 kJ/mol | 0.997 ± 0.142 kJ/mol
11 | SAGGSTTVTIETYESEKFPNGSFKTSTKKIVITNTLSPDEELTLPNGKKIPASLSAEEIAEAILKSESAGGS [r16_440_JUSTAS] | 0.633 ± 0.41 kJ/mol | 2.19 ± 0.46 kJ/mol | -3.55 ± 0.962 kJ/mol
12 | SAGGSAGGSAKPDPGAPYPWKIVEVVPIRIDMYFKFPGEPFKMDIEIPILVMVDPDNGKIFSAGGSAGGSAG [r3_391_TrROS] | 11.3 ± 0.586 kJ/mol | 12.3 ± 0.268 kJ/mol | 9.61 ± 0.46 kJ/mol
13 | SAGGSAGGSAGGKTVWIPWDDLEELKDLPPGKKRTIHLWNPKNGRWYRITVTDNNIEIERSAGGSAGGSAGG [r7_765_TrROS] | 12 ± 0.326 kJ/mol | 12.92 ± 0.0544 kJ/mol | 9.86 ± 0.255 kJ/mol
14 | SAGGSAGGTATLVLPAAAFPSRPDGSLGLEEIRDVARPIAQEAFGTDDITLDVESHPDGFVTITFSSAGGSA [r15_562_TrMRF] | 2.17 ± 0.301 kJ/mol | 0.824 ± 0.711 kJ/mol | 2.69 ± 0.113 kJ/mol
15 | SAGGSAGGSAGGDRLKIIIPFPPGMDIDQIAEELKPHFKKVEIEHDKEDGWVTIEVELDSAGGSAGGSAGGS [r10_1007_TrROS] | 3.93 ± 0.628 kJ/mol | 4.51 ± 0.418 kJ/mol | 1.13 ± 0.406 kJ/mol
16 | SAGGSAGGSEKPVLIVKVKVKNPKTKKWEEKTIEVPEGVKTPEEVAKALEKEFGDVVKVEILPSAGGSAGGS [r12_942_TrROS_Hall] | 6.84 ± 0.795 kJ/mol | 7.78 ± 0.46 kJ/mol | 5.22 ± 0.268 kJ/mol
17 | SAGGGSTVTTTTPDGTSVSTTTLPDGTVTATATYPDSTVSTTYDPATNTTTVTTTSGGTTVATTTVAASAGG [r13_748_JUSTAS] | 7.92 ± 0.272 kJ/mol | 5.83 ± 0.13 kJ/mol | 10.4 ± 0.46 kJ/mol
18 | SAGGSMIVIVEIKPDGTIKIKVRTKDGKEKTIEISKEELEKEETPEEIAEKLAKEFEKEGVEEIEISAGGSA [r2_249_TrROS_Hall] | 9.45 ± 1.34 kJ/mol | 9.18 ± 2.26 kJ/mol | 12 ± 1.09 kJ/mol
19 | SAGGSAGGSMDLKDIKILEAYDPGGPVVVTFLNEGKPYTVTIPPENAQILLDLLKEGNIEIKPSAGGSAGGS [r12_604_TrMRF] | 5.23 ± 0.226 kJ/mol | 6.46 ± 0.197 kJ/mol | 3.24 ± 0.134 kJ/mol
20 | SAGGMTKEKALELAEEIAREFAKKHGIEKLELKVEDVVEKEDEVIVRLKIVYPDKVYELDLVVPKDYVSAGG [r13_611_TrMRF] | 15.5 ± 0.795 kJ/mol | 17 ± 0.544 kJ/mol | 11.2 ± 0.46 kJ/mol
21 | SAGGMRLRIVVKSEEEARELAEALAKKLKEEFPGLKIEVKVVKVEYNEETDLIVVEVEIKVELEDEEPSAGG [r13_585_TrROS_Hall] | 18.5 ± 1.46 kJ/mol | 18.5 ± 0.795 kJ/mol | 19.2 ± 1.38 kJ/mol

Row | Sequence | folding stability dG unfold [1] | folding stability dG unfold [2] | folding stability dG unfold [3]
22 | SAGGSAGGSKPDTIKITFPDGFEIEINGPGMIMIRFPEQGYIFRIPIDPDKNEIKIEIVEPLPSAGGSAGGS [r12_539_TrROS] | 12.8 ± 0.544 kJ/mol | 14.2 ± 0.188 kJ/mol | 10.2 ± 0.46 kJ/mol
23 | SAEIPPDLIAVILGIEPYRFGERDFLVITAAIFRPEEPDAEVTLYTIVIEGDKIVSITPSRYRVPPEALSAG [r14_651_TrMRF] | 14.9 ± 0.46 kJ/mol | 16.1 ± 0.197 kJ/mol | 12.2 ± 0.41 kJ/mol
24 | SAGGMKIRIPEGQEVKLKKVRFWHNGKPWKIPNMEIKVDRIDPNDNRVQIEIKHPNGRPHTFAFDIKSAGGS [r8_215_TrROS] | 2.14 ± 0.36 kJ/mol | 1.91 ± 0.544 kJ/mol | 1.92 ± 0.46 kJ/mol
25 | SAGGSAMKKTITVTLSYPETGETRTVTVELTDIPESDPEKWKALAEEVAEALAKERGAEVLGIEISSAGGSA [r15_1013_JUSTAS] | 19.7 ± 0.272 kJ/mol | 19.3 ± 0.276 kJ/mol | 20.5 ± 0.586 kJ/mol
26 | SAGGSAGGSAGGIGPEIVEAALIEAKEKVPEDEEVEILVRDPVTGEVLRLRIYPDRVELGSAGGSAGGSAGG [r7_44_TrMRF] | 2.92 ± 0.795 kJ/mol | 3.28 ± 0.586 kJ/mol | 1.61 ± 0.46 kJ/mol
27 | SAGGKIKIMDIEIERHGGYYKIEIWIQVDTPDDIEDLLKAGVPNVEVERRRNPNGRLYVQAEFYIPAGSAGG [r13_506_TrROS] | 13.1 ± 1.09 kJ/mol | 14.6 ± 0.711 kJ/mol | 7.29 ± 0.46 kJ/mol
28 | SAGGSAGGSAGGKIKLTVTVDADGNATVTLEIEVESPEDKPFTIRLTLTFPLKDGESLTSAGGSAGGSAGGS [r10_763_TrMRF] | 16 ± 0.711 kJ/mol | 16.2 ± 0.502 kJ/mol | 16.3 ± 1.21 kJ/mol
29 | PKIVEILDAKRTPDGSLVIKIKIEPPEPNVKIKVIVKTPNSFKVYEIDPTKTTLEITIPGNVTNPKIEVFGS [r1_428_TrMRF] | 10.6 ± 1.42 kJ/mol | 11.1 ± 0.586 kJ/mol | 10.5 ± 0.711 kJ/mol
30 | SAGGSAGGYWMISVKIYDPEDGKPIAQMTFMFDSPEEAERIVEEIADALPPGYRVEVDIHPIPNSAGGSAGG [r6_690_TrROS] | 20.3 ± 0.669 kJ/mol | 20.9 ± 0.586 kJ/mol | 16 ± 0.502 kJ/mol
31 | SAGPITITYDEETGTLTITATVAPGEEVTFKLTFVDEETGVVVTEVEETVTVKEGDTVTITVKVEKLPPSAG [r5_737_TrROS_Hall] | 14 ± 1.13 kJ/mol | 15.4 ± 0.544 kJ/mol | 9.15 ± 0.586 kJ/mol
32 | SAGGSAKITPGEEINFMFYNPENGQPFMVRIRIEKITVKRKPKDGKRKVEYKIKIEMSPGMKEITISAGGSA [r15_248_TrROS] | 13.5 ± 1.26 kJ/mol | 13.9 ± 0.46 kJ/mol | 9.46 ± 0.628 kJ/mol
33 | SAGGSAGGSAGIVIPLDGRPIVIDMYPNGYMRIEVEPPNGKKKTRTFPGAPIEDILKAIKSAGGSAGGSAGG [r11_934_TrROS] | -0.855 ± 1.17 kJ/mol | -0.0831 ± 0.502 kJ/mol | -2.91 ± 2.97 kJ/mol
34 | SAGPPKKREFEIMIQIPLPPGQSAEELKDLLEIPIRLPDGKTIEIRPRAIEVDPGPGQVTVHYKIEVTDSAG [r5_939_TrROS] | 1.94 ± 0.414 kJ/mol | 2.08 ± 0.46 kJ/mol | 0.747 ± 0.331 kJ/mol
35 | SAGGKIKIRNPKTGLIVEVLEYNPETGKFKVKVTFPDGSVEEKEFPGSLEDLIEWLESEGFPFEVEGSAGGS [r16_748_TrMRF] | 14.1 ± 0.669 kJ/mol | 15.6 ± 0.544 kJ/mol | 9.45 ± 0.544 kJ/mol
36 | SAGGPNFTIKIEIEEIPNGVRVHKMTMELPDGHAWLMVMLYSPDPGKMFMIMVPVDPNGGIEDINIMPSAGG [r13_323_TrROS] | 16.4 ± 0.795 kJ/mol | 17.2 ± 0.31 kJ/mol | 10.5 ± 0.322 kJ/mol
37 | SAGGSAGGSAGGMKPGEKPEVEYRVRIYDADTGEWREVPLEDLKKLKLPPGAVVEIEKVSAGGSAGGSAGGS [r10_1121_TrROS_Hall] | 12.2 ± 0.628 kJ/mol | 14.3 ± 0.28 kJ/mol | 8.4 ± 0.586 kJ/mol
38 | SATREIELPGKKITIHHNPGNNMFRITIYDPKPGKPVEIPIPANNPGMTMENIIDQIREAAKKGRPVRISAG [r14_157_TrROS] | 3.7 ± 0.343 kJ/mol | 2.81 ± 0.331 kJ/mol | 3.56 ± 0.151 kJ/mol
39 | SAGGSAGGSAGGMEKLSETVTETVEVTLTSGDKTYTFTVTTTTVVLPDGTVETLEVTLQPSAGGSAGGSAGG [r11_95_JUSTAS] | 11.8 ± 0.586 kJ/mol | 14.3 ± 0.502 kJ/mol | 8.58 ± 0.418 kJ/mol
40 | SAGGSALADRIKEIARENGFEPESVQFDPGNGHLMISIEPPDGRGVVVQIDIDNNNLKIQIQPLDDSAGGSA [r15_561_TrROS] | 4.33 ± 0.544 kJ/mol | 3.31 ± 0.414 kJ/mol | 5.04 ± 0.314 kJ/mol
41 | SAGGSAGGSSPSSVSTYDIEFPDGTKIKITVTLGPGTPVVEITTLTESPPVKRVANTEEVKFESAGGSAGGS [r20_100_JUSTAS] | 2.91 ± 0.795 kJ/mol | 4.16 ± 0.172 kJ/mol | -0.343 ± 0.247 kJ/mol
42 | SAGGFTIEELAEKFPNVEVYVQRFGNKYLIQFEFEDKDRKYQVVIKYDGPGKIDIKVMPPNQDAEEALSAGG [r13_859_TrROS] | 11.7 ± 0.301 kJ/mol | 12.95 ± 0.0795 kJ/mol | 8.77 ± 0.289 kJ/mol
